According to patent publication US20180346912, “METHOD FOR STABILIZING DNA APTAMERS” (TAGCYX BIOTECHNOLOGIES, published 2018):

Biological target: vWF A1 domain (UniProt P04275 P04275:1277-1453)
Assay: competition; EMSA competition vs 32P-ARC1172(wt) (=1.00), PBS, 0.1 mg/mL BSA, 37 C
Details: tags: U-Protein Express BV
Protocol: In order to examine each prepared nucleic acid for its binding to vWF A1 domain, competition with ARC1172 reported as an aptamer binding to vWF A1 domain was tested using each variant nucleic acid. In 20 μL of a reaction solution (1× PBS and 0.1 mg/mL BSA). ARC1172 labeled with [γ-³²P]ATP (final concentration: 100 nM), each unlabeled nucleic acid (ARC1172(wt), ARC1172(wt)-iT, ARC1172-F, ARC 1172-F-iT, and ARC1172-G) (final concentration: 100 nM), and vWF A1 domain (100 nM, U-Protein Express BV) were mixed and incubated at 37° C. for 30 minutes. Then, 25% glycerol containing bromophenol blue was added thereto at a final glycerol concentration of 5%. Labeled ARC1172(wt) bound to vWF A1 domain was separated from labeled ARC1172 in a free form by 10% non-denaturing polyacrylamide gel electrophoresis. The gel was dried and visualized using Bio Image Analyzer FLA-7000, and the radioactivity was measured. The gel shift rate, the inhibition rate, and the relative binding rate were calculated in accordance with Example 2.

Chain of vWF A1 domain (P04275 1277-1453, one chain of several): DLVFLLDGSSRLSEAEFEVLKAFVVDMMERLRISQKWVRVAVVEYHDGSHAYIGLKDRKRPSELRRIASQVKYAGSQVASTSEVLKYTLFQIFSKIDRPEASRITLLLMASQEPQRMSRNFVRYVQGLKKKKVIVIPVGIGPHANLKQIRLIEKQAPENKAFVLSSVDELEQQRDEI

Binder: GGCGTGCAGTGCCGAAGGCCGTGCGGTGCCTCCGTCACGCCCGCGAAGCG (ssDNA) [ARC1172-G]
- binding signal (internal and 3' mini-hairpins): 1.61

Binder: GGCGTGCAGTGCCGAAGGCCGTGCGGTGCCTCCGTCACGCC (ssDNA, 3' idT) [ARC1172-F-iT]
- binding signal (internal mini-hairpin): 1.43

Binder: GGCGTGCAGTGCCGAAGGCCGTGCGGTGCCTCCGTCACGCC (ssDNA) [ARC1172-F]
- binding signal (internal mini-hairpin): 1.37

Binder: GGCGTGCAGTGCCTTCGGCCGTGCGGTGCCTCCGTCACGCC (ssDNA, 3' idT) [ARC1172(wt)-iT]
- binding signal: 1.12
